{
  "source": "paper PMC8718552",
  "about": "(Frontiers in Immunology, 2021)",
  "molecules": {"B1": {"name": "SARS-CoV-2 ORF8 (L84) (71–76) A (domain or fragment)", "chain": "FHQECSLQSCTQHQPYVVDDPCPIHFYSKWYIRVGARKSAPLIELCVDEAGSKSPAAAAAAGNYTVSCLPFTINCQEPKLGSLVVRCSFYEDFLEYHDVRVVLDFI"}},
  "key": {"[1]": {"target": "SARS-CoV-2 ORF8 (S84) Ig-like domain (SARS-CoV-2) (UniProt P0DTC8)", "test": "SEC"}, "[2]": {"target": "SARS-CoV-2 ORF8 (S84) Ig-like domain (SARS-CoV-2) (UniProt P0DTC8)", "test": "non-reducing SDS-PAGE"}, "[3]": {"target": "SARS-CoV-2 ORF8 (S84) (71–76) A mutant (SARS-CoV-2) (UniProt P0DTC8)", "test": "SEC"}, "[4]": {"target": "CD14 on human CD14+ monocytes (UniProt P08571)", "sequence (P08571 20-345)": "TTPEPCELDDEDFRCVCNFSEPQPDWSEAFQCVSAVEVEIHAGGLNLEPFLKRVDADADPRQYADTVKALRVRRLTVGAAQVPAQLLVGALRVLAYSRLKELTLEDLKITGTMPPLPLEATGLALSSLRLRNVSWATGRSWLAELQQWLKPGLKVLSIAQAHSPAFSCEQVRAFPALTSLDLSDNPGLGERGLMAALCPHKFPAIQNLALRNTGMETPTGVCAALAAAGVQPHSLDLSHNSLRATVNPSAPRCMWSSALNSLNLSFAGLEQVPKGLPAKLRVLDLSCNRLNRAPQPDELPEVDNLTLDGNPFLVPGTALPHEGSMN", "test": "flow cytometry on cells"}, "non-reducing SDS-PAGE": {"target": "the molecule itself", "test": "non-reducing SDS-PAGE"}},
  "data": [
    {"molecule": "SARS-CoV-2 ORF8 (S84) Ig-like domain (from UniProt P0DTC8 16-121) (domain or fragment)", "values": [
      {"measurement": "stoichiometry N", "setting": "[1]", "value": 2},
      {"measurement": "stoichiometry N", "setting": "[2]", "value": 2}
    ]},
    {"molecule": "SARS-CoV-2 ORF8 (S84) (71–76) A mutant (from UniProt P0DTC8 16-121) (domain or fragment)", "values": [
      {"measurement": "stoichiometry N", "setting": "[3]", "value": 2}
    ]},
    {"molecule": "SARS-CoV-2 ORF8 (L84) Ig-like domain (from UniProt P0DTC8) L84S", "values": [
      {"measurement": "response", "setting": "[4]; parent: 48.7", "value": 37.7, "unit": "%"},
      {"measurement": "response", "setting": "[4]; parent: 51.8", "value": 32.7, "unit": "%"},
      {"measurement": "response", "setting": "[4]; parent: 54.1", "value": 32.7, "unit": "%"},
      {"measurement": "response", "setting": "[4]; parent: 68.0", "value": 47.9, "unit": "%"},
      {"measurement": "response", "setting": "[4]; parent: est. 56, read off a plot", "value": 38, "unit": "%"}
    ]},
    {"molecule": "B1", "values": [
      {"measurement": "binding result", "setting": "non-reducing SDS-PAGE", "value": "binds"}
    ]}
  ]
}
